Non-standard residues stand in square brackets, D forms with d. Arg(NO2) = N=C(NCCC[C@H](N)C(=O)O)N[N+](=O)[O-]
What was measured:
[1] = Effect of pH value on the stability of the solution (purity); format: physicochemical
[2] = Effect of concentration on the stability of the solution (purity over time); settings: 1 equivalent sodium acetate in 50% ethanol at 25° C.

H-Ala-Pro-Gly-Pro-Arg(NO2)—OCH2CH3•HCl (H-APGP[Arg(NO2)]-OEt; also: HCl salt)
pH at which the solution is stable ([1]; 5% solution in 25% ethanol at 25° C.): 3-6
Time the solution can be stored at room temperature ([1]; 5% solution in 25% ethanol, pH 3-6): about 3 months
Purity at Day 30 ([2]; 0.01 wt %): 55.6%
Purity at Day 90 ([2]; 0.01 wt %): 21.3%
Purity at Day 180 ([2]; 0.01 wt %): 0%
Purity at day 0 ([2]; 0.01 wt %): 98.3%
Purity at Day 30 ([2]; 0.1 wt %): 65.7%
Purity at Day 90 ([2]; 0.1 wt %): 30.2%
Purity at Day 180 ([2]; 0.1 wt %): 8.6%
Purity at day 0 ([2]; 0.1 wt %): 98.4%
Purity at Day 30 ([2]; 1 wt %): 91.3%
Purity at Day 90 ([2]; 1 wt %): 75.9%
Purity at Day 180 ([2]; 1 wt %): 56.6%
Purity at day 0 ([2]; 1 wt %): 98.5%
Purity at Day 30 ([2]; 3 wt %): 96.8%
Purity at Day 90 ([2]; 3 wt %): 92.1%
Purity at Day 180 ([2]; 3 wt %): 85.8%
Purity at day 0 ([2]; 3 wt %): 98.8%
Purity at Day 30 ([2]; 5 wt %): 97.1%
Purity at Day 90 ([2]; 5 wt %): 94.4%
Purity at Day 180 ([2]; 5 wt %): 89.7%
Purity at day 0 ([2]; 5 wt %): 98.9%
Purity at Day 30 ([2]; 7 wt %): 97.5%
Purity at Day 90 ([2]; 7 wt %): 95.0%
Purity at Day 180 ([2]; 7 wt %): 91.3%
Purity at day 0 ([2]; 7 wt %): 98.9%
Purity at Day 30 ([2]; 8 wt %): 97.6%
Purity at Day 90 ([2]; 8 wt %): 95.1%
Purity at Day 180 ([2]; 8 wt %): 91.4%
Purity at day 0 ([2]; 8 wt %): 98.8%
Purity at Day 30 ([2]; 10 wt %): 97.6%
Purity at Day 90 ([2]; 10 wt %): 95.2%
Purity at Day 180 ([2]; 10 wt %): 91.5%
Purity at day 0 ([2]; 10 wt %): 98.9%
Purity at Day 30 ([2]; 15 wt %): 97.6%
Purity at Day 90 ([2]; 15 wt %): 95.0%
Purity at Day 180 ([2]; 15 wt %): 91.4%
Purity at day 0 ([2]; 15 wt %): 98.8%
Purity at Day 30 ([2]; 20 wt %): 97.5%
Purity at Day 90 ([2]; 20 wt %): 95.1%
Purity at Day 180 ([2]; 20 wt %): 91.5%
Purity at day 0 ([2]; 20 wt %): 98.9%
Purity at Day 30 ([2]; 30 wt %): 97.6%
Purity at Day 90 ([2]; 30 wt %): 95.1%
Purity at Day 180 ([2]; 30 wt %): 91.7%
Purity at day 0 ([2]; 30 wt %): 98.9%
Purity at Day 30 ([2]; 50 wt %): 97.5%
Purity at Day 90 ([2]; 50 wt %): 95.2%
Purity at Day 180 ([2]; 50 wt %): 91.6%
Purity at day 0 ([2]; 50 wt %): 98.8%
